Paper PMC2879644

Target: Biotinylated histone H3 peptide (aa 21-44) tri-methylated on K27 (UniProt P68431)
Test: pull-down

## GST-SUMO1-fused Pc2(1-100) (from UniProt O00257 1-100)
  fold change of the amount bound against Pc2 (1-100): > 4 fold
